In the supplement of paper PMC12855868:

B1: library; numbered along this chain (parent)
chain: MAAAGGARLLRAASAVLGGPAGRWLHHAGSRAGSSGLLRNRGPGGSAEASRSLSVSARARSSSEDKITVHFINRDGETLTTKGKVGDSLLDVVVENNLDIDGFGACEGTLACSTCHLIFEDHIYEKLDAITDEENDMLDLAYGLTDRSRLGCQICLTKSMDNMTVRVPETVADARQSIDVGKTS

Variants of: B1
Assay: scaled log2 fold change in cell abundance, elesclomol vs control (0 = silent mean, 1 = nonsense mean) (scaled log2 ratio); higher = higher viability under elesclomol (loss of FDX1 cuproptosis function)
Conditions: glucose 10 mM
Procedure: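 Deep mutational scan of full-length human FDX1: a pooled saturation-mutagenesis ORF library (every residue 2-184 mutated to all 19 amino acids plus stop, and silent codons where available) was expressed by lentivirus in FDX1-knockout ABC1 (14 days) or HEK293T (11 days) cells grown with elesclomol (ES) or DMSO control. Variant abundance came from ORF sequencing. The log2 fold change (ES vs control, mean of duplicates) was centred on the silent-variant mean (0) and scaled to the nonsense-variant mean (1). Higher values mean greater viability under ES, i.e. loss of FDX1 function in cuproptosis.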

[1] = with ABC1 FDX1 KO, elesclomol 5 nM, 14 days
[2] = with HEK293T FDX1 KO, elesclomol 40 nM, 11 days
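Further: variant abundance is its share of total variant reads in each endpoint sample, from next-generation sequencing of the integrated ORF PCR-amplified out of genomic DNA.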

Row | Variant | scaled log2 fold change [1] | scaled log2 fold change [2]
1 | MAAAGGARLLRAASAVLGGPAGRWLHHAGSRAGSSGLLRNRGPGGSAEASRSLSVSAMARSSSEDKITVHFINRDGETLTTKGKVGDSLLDVVVENNLDIDGFGACEGTLACSTCHLIFEDHIYEKLDAITDEENDMLDLAYGLTDRSRLGCQICLTKSMDNMTVRVPETVADARQSIDVGKTS | 0.306 | -0.781
2 | MAAAGGARLLRAASAVLGGPAGRWLHHAGSRAGSSGLLRNRGPGGSAEASRSLSVSARARSSSEDKITVHFINRDGETLTTKGKVGDSLLDVVVENNLDIDGFGACEGTLACFTCHLIFEDHIYEKLDAITDEENDMLDLAYGLTDRSRLGCQICLTKSMDNMTVRVPETVADARQSIDVGKTS | 0.0249 | 0.717
3 | MAAAGGARLLRAASAVLGGPAGRWLHHAGSRAGSSGLLRNRGPGGSAEASRSLSDSARARSSSEDKITVHFINRDGETLTTKGKVGDSLLDVVVENNLDIDGFGACEGTLACSTCHLIFEDHIYEKLDAITDEENDMLDLAYGLTDRSRLGCQICLTKSMDNMTVRVPETVADARQSIDVGKTS | -0.0142 | –
4 | MAAAGGARLLRAASAVLGGPAGRWLHHAGSRAGSSGLLRNRGPGGSAEASRSLSVSARARSSSEDKITVHFINRDGETLTTKGKVGDSLLDVVVENNLDIDGFGACENTLACSTCHLIFEDHIYEKLDAITDEENDMLDLAYGLTDRSRLGCQICLTKSMDNMTVRVPETVADARQSIDVGKTS | 0.805 | 0.721
5 | MAAAGGARLLRAASAVLGGPAGRWLHHAGSRAGSSGLLRNRGPGGSAEASRSLSVSARARSSSEDKITVHFINRDGETLTTKGKVGDSLLDVVVENNLDIDGFGACEGTLACSTCHLIFEDHCYEKLDAITDEENDMLDLAYGLTDRSRLGCQICLTKSMDNMTVRVPETVADARQSIDVGKTS | 0.148 | 0.505
6 | MAAAGGARLLRAASAVLGGPMGRWLHHAGSRAGSSGLLRNRGPGGSAEASRSLSVSARARSSSEDKITVHFINRDGETLTTKGKVGDSLLDVVVENNLDIDGFGACEGTLACSTCHLIFEDHIYEKLDAITDEENDMLDLAYGLTDRSRLGCQICLTKSMDNMTVRVPETVADARQSIDVGKTS | -0.216 | -0.139
7 | MAAAGGARLLRAASAVLGGPAGRWLHHAGSRAGSSGLLRNRGPGGSAEASRSLSVSARARSSSEDKITVHFINRDGETLTTKGKVGDSLLDVVVENNLDIDGFGACEGTLACSTCHLIFEDHIYEKLDAITDEENDMLDLAYGLTDRSRLGCQICLTKSMKNMTVRVPETVADARQSIDVGKTS | 0.234 | 0.181
8 | MAAAGGARLLRAASAVLGGPAGRWLHHAGSRAGSSGLLRNRIPGGSAEASRSLSVSARARSSSEDKITVHFINRDGETLTTKGKVGDSLLDVVVENNLDIDGFGACEGTLACSTCHLIFEDHIYEKLDAITDEENDMLDLAYGLTDRSRLGCQICLTKSMDNMTVRVPETVADARQSIDVGKTS | 0.277 | 0.513
9 | MAAAGGARLLRAASAVLGGPAGRWLHHAGSRAGSSGLLRNRGPGGSAEASRSLSVSARARSSSEDKITVHFINRDGETLTTKGKVGDSLLDVVVENNLDIDGFGACEGTLACSTCHLIFEDHIYEKLDAITDEENDMLDLAYGLTDRSRLGCFICLTKSMDNMTVRVPETVADARQSIDVGKTS | 0.595 | 0.361
